We go through two molecules from article PMC6906086.

One data set deals with Lsr2 (Mycobacterium tuberculosis H37Rv, UniProt P9WIP7 1-112). In words: EMSA; 0.95-7.6 uM Lsr2. Conditions: protein: recombinant; (pET15-TEV, Ni-NTA); chain copies: 2; blunt.
For a further data set, the target named is Lsr2BD WT (Mycobacterium tuberculosis H37Rv, UniProt P9WIP7 66-112). Nature of the data set: fluorescence anisotropy; pH 7.5; 4 nM DNA. Conditions: protein: recombinant; tags: 6xHis; label: 5' Alexa Fluor 488; blunt. (In general: Fluorescence polarisation rises when a labelled molecule tumbles more slowly, as on binding a larger partner.)

Broadly, the Kd is a measure of binding affinity in units of concentration.

B1: leuS site (dsDNA)
DNA 1: AATTCGGCAAAATCGGTAAG
DNA 2: CTTACCGATTTTGCCGAATT
Consider B1, for which, in the data set with Lsr2, the binding result is “binds”.

B2: AT-rich 14-mer (dsDNA)
DNA 1: CGCGCATATATGCG
DNA 2: CGCATATATGCGCG
In the case of B2, in the data set with Lsr2BD WT, the equilibrium dissociation constant (Kd) was found to be 210 ± 60 nM.
